Reference: paper PMC6879724, “Insect Hsp90 Chaperone Assists Bacillus thuringiensis Cry Toxicity by Enhancing Protoxin Binding to the Receptor and by Protecting Protoxin from Gut Protease Degradation” (mBio, 2019)

Key:
Cry1Ab protoxin = target: T1, Cry1Ab protoxin (Bacillus thuringiensis, UniProt P0A370 1-1155); experiment: ELISA; plates coated with 0.5 ug protoxin or activated toxin in PBS; PxHsp90 in Hsp90 buffer (1 mM ATP, 1 mM Mg in PBS) added for 1 h at 37 C; detected with anti-polyhistidine-peroxidase antibody; one sample without ATP (binding significantly reduced); conditions: both partners purified
T1 construct: also called 130-kDa protoxin

Cry1Ac protoxin = Cry1Ac protoxin (Bacillus thuringiensis (strain HD73), UniProt P05068 1-1178); experiment: as above; conditions: both partners purified

B1: Plutella xylostella Hsp90 (natural protein)
chain: not shown
notes: Hsp90 of Plutella xylostella, gene Pxhsp90 (GenBank AB214972.1), amplified from genomic DNA with primers from the start codon (NdeI) to the stop codon (BamHI); Cloned NdeI-BamHI into pET28b with its own stop codon, so the His tag is probably N-terminal (surmised); detected in the ELISA with an anti-polyhistidine antibody; also called PxHsp90; source: E. coli BL21 (pET28b), purified (Ni-NTA from …)
Cry1Ab protoxin
  binding result: binds
Cry1Ac protoxin
  binding result: binds
